# In PMC7847995, “Site-directed mutagenesis identified the key active site residues of alcohol acyltransferase PpAAT1 responsible for aroma biosynthesis in peach fruits” (Horticulture Research, 2021):
# Positions count from the first letter of the chain named. Names and notes keep the numbering of the source.
# B1: PpAAT1 (Prunus persica; K298F) (protein)
# chain: MGSLCPLLFPVNRFEPELITPAKPTPIETKQLSDIDDQDGLRFHFPVIISYKNNPSMKGNDAVMVIREALSRALVYYYPLAGRLREGPNRKLMVECNGEGVLFIEANADVTLEQLGDRILPPCPVLEEFLSNPPGSDGILGCPLLLVQVTRLTCGGFIFGLRINHAMCDAVGLAKFLNAIGEMAQGADSLSVPPVWARELLNARDPPTVTRWHYEYDQLLDSQGSFIAAIDQSNMAQRSFYFGPQQIRALRKHLPPHLSTCSSFELITACVWRCRTLSLRLNPKDTVRISCAVNARGFSINDLCLPSGFYGNAFSIPTAVSTVELLCASPLGYGVELVRKSKAQMDKEYMQSLADFFVIRGRPPLPMGWNVFIVSDNRHTGFGEFDVGWGRPLFAGLARAFSMISFYVRDNNQEEEFGTLVPICLPSTSLERFEEELKKMTLEHVEEISK
# notes: codon-optimised, C-terminal polyhistidine tag, pET-30a(+), expressed in E. coli, purified; HxxxD motif HAMCD at H165-D169
# B2: PpAAT1 (Prunus persica; F264Y) (protein)
# chain: B1 chain with F264Y, F298K
# notes: as for B1
# B3: PpAAT1 (Prunus persica; F382Y) (protein)
# chain: B1 chain with F298K, F382Y
# notes: as for B1
# B4: PpAAT1 (Prunus persica; F314Y) (protein)
# chain: B1 chain with F298K, F314Y
# notes: as for B1
# B5: PpAAT1 (Prunus persica; S262A) (protein)
# chain: B1 chain with S262A, F298K
# notes: as for B1
# B6: PpAAT1 (Prunus persica; A170S) (protein)
# chain: B1 chain with A170S, F298K
# notes: as for B1
# B7: PpAAT1 (Prunus persica; K342F) (protein)
# chain: B1 chain with F298K, K342F
# notes: as for B1
# B8: PpAAT1 (Prunus persica) (protein)
# chain: B1 chain with F298K
# notes: as for B1
# B9: PpAAT1 (Prunus persica; A174S) (protein)
# chain: B1 chain with A174S, F298K
# notes: as for B1
# B10: PpAAT1 (Prunus persica; R339V) (protein)
# chain: B1 chain with F298K, R339V
# notes: as for B1
# B11: PpAAT1 (Prunus persica; H379V) (protein)
# chain: B1 chain with F298K, H379V
# notes: as for B1
# Target: T1, PpAAT1 (Prunus persica, UniProt M5WU76)
# T1 construct: gene AAT1; codon-optimised, C-terminal polyhistidine tag, pET-30a(+), expressed in E. coli, purified; HxxxD motif HAMCD at H165-D169
# Assay: esterification assay
# Assay type: biochemical
# Settings: co-substrate acetyl-CoA; product decyl acetate
# T1 sequence (M5WU76 entry or part of it): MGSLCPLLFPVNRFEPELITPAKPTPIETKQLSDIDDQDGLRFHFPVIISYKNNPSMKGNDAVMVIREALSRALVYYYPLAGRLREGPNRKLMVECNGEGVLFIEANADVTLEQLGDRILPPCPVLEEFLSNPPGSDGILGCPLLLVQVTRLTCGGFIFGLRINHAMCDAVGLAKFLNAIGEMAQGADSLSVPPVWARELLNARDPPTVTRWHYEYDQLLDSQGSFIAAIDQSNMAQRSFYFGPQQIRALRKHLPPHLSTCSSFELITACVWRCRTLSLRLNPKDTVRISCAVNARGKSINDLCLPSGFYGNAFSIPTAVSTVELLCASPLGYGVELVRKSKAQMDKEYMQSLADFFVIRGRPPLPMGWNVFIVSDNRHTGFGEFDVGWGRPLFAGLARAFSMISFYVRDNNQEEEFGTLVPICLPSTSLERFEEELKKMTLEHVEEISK
row,Molecule,Kcat/Km
1,CCCCCCCCCCO [decanol],"acetyl–CoA and four different alcohols (propanol, hexanol, benzyl alcohol, and decanol)"

# Same assay, conditions: co-substrate acetyl-CoA; product hexyl acetate
row,Molecule,Kcat/Km
1,CCCCCCO [hexanol],a higher Kcat/Km ratio was observed in all substitutions when hexanol was used as the substrate

# Same assay, conditions: co-substrate acetyl-CoA; product phenylmethyl acetate
row,Molecule,Kcat/Km
1,OCc1ccccc1 [benzyl alcohol],"acetyl–CoA and four different alcohols (propanol, hexanol, benzyl alcohol, and decanol)"

# Same assay, conditions: co-substrate acetyl-CoA; product propyl acetate
row,Molecule,Kcat/Km
1,CCCO [propanol],"acetyl–CoA and four different alcohols (propanol, hexanol, benzyl alcohol, and decanol)"

# Substrate: CCCCCCC(O)CCC(=O)SCCNC(=O)CCNC(=O)[C@H](O)C(C)(C)COP(=O)(O)OP(=O)(O)OC[C@H]1O[C@@H](n2cnc3c(N)ncnc32)[C@H](O)[C@@H]1OP(=O)(O)O
# Assay: GC-MS of gamma-decalactone formation
# Assay type: biochemical, Prunus persica
# Settings: internal esterification to gamma-decalactone; ±SE, n = 3
# Source text: GC-MS of gamma-decalactone formation on PpAAT1
Molecule,Km,kcat [s⁻¹],kcat/Km [M⁻¹ s⁻¹]
B1,10.1014 (±1.4928) mM,0.451 ± 0.0624,44.1 ± 7.9
B2,3.0241 (±0.5145) mM,2.53 ± 0.287,836 ± 122
B3,9.0224 (±0.7366) mM,0.373 ± 0.0138,41.3 ± 2.7
B4,4.2018 (±0.5997) mM,1.11 ± 0.119,265 ± 31.1
B5,2.9920 (±0.3836) mM,2.36 ± 0.364,790 ± 190
B6,4.5852 (±0.6923) mM,1.28 ± 0.1,278 ± 19.4
B7,5.0532 (±0.3364) mM,1.32 ± 0.0927,262 ± 74.2
B8,2.6187 (±0.2511) mM,2.72 ± 0.146,1040 ± 91.6
B9,9.1599 (±1.0952) mM,0.399 ± 0.048,43.6 ± 6.9
B10,8.8556 (±1.4954) mM,0.322 ± 0.0547,36.3 ± 5.1
B11,8.2152 (±0.9510) mM,0.362 ± 0.0249,44.1 ± 3.6
